How the values were obtained:
Test in all cases: GST fusion protein interaction assay
Settings in all cases: 35S-labeled IVTT protein as prey
GST-hMSH6 = target: T1, GST-hMSH6 (Homo sapiens, UniProt P52701); format: binding
T1 construct: GST fusion proteins which comprised either full length hMSH3 or full length hMSH6; made in house; host or cells: E. coli (XL-blue), pGEX
Method: (§1) An overnight culture of E. coli XL-blue cells which harbored pGEX-hMSH(X) (i.e. ‘X’ being 2, 3, or 6) was grown in LB with […] ampicillin. 50 milliliter of Luria broth containing ampicillin was inoculated with 1 milliliter of the overnight culture, and the culture was incubated until the optical density, as assessed at 600 nanometers, was about 0.5. IPTG was added to a final concentration of 0.1 millimolar, and the culture container placed in a shaker at 30° C. for 2 hours to generate induced cells. […] GST-fusion protein levels were quantified as described herein. […] GST-fusion protein expression levels were quantitated by Coomassie Brilliant Blue staining of protein separated by SDS-PAGE gels, using BSA as a standard.
(§2) In vitro transcription and translation (IVTT) reactions involving ^35S-Methionine were performed with pET-hMSH(Y) (i.e. where ‘Y’ was 2, 3, or 6) using purified DNA according to the manufacturers recommendations. […] This value was calculated using the specific activity of ^35 S-Methionine, correcting for the number of methionine residues in each IVTT construct and using SDS-PAGE and a Molecular Dynamics Phosphorlmager device equipped with ImageQuant software (Sunnyvale, Calif.). […]

GST-hMSH2 = target: T2, GST-hMSH2 (Homo sapiens, UniProt P43246); format: binding
T2 construct: made in house; host or cells: E. coli (XL-blue), pGEX
Method: as §1, §2

GST-hMSH3 = format: binding, human
Method: as §1, §2

T2 sequence (P43246 whole entry): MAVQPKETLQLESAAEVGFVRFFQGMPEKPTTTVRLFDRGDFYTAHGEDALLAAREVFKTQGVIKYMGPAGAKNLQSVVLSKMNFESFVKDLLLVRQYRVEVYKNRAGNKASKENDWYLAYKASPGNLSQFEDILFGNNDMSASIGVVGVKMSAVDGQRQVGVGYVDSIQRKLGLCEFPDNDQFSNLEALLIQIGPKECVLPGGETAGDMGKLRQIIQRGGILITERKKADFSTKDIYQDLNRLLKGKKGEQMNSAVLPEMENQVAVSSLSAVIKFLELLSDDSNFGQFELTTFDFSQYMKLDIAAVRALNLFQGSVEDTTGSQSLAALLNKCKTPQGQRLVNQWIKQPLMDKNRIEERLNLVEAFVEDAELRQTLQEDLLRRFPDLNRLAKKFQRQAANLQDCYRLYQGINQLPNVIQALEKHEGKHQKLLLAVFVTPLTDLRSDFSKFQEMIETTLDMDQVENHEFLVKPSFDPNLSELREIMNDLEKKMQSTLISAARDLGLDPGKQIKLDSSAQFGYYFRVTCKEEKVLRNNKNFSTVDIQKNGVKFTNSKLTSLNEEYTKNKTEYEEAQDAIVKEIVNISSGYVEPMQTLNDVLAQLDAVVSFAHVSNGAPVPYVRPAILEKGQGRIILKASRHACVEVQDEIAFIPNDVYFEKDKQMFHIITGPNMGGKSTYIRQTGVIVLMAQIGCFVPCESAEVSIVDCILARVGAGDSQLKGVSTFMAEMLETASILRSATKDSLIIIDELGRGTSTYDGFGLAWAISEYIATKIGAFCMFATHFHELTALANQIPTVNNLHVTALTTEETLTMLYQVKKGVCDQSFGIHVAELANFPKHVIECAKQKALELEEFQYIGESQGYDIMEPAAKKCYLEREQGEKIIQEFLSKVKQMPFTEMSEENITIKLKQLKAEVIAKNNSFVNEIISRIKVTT
T1 sequence (P52701 whole entry, the tested form may be a part): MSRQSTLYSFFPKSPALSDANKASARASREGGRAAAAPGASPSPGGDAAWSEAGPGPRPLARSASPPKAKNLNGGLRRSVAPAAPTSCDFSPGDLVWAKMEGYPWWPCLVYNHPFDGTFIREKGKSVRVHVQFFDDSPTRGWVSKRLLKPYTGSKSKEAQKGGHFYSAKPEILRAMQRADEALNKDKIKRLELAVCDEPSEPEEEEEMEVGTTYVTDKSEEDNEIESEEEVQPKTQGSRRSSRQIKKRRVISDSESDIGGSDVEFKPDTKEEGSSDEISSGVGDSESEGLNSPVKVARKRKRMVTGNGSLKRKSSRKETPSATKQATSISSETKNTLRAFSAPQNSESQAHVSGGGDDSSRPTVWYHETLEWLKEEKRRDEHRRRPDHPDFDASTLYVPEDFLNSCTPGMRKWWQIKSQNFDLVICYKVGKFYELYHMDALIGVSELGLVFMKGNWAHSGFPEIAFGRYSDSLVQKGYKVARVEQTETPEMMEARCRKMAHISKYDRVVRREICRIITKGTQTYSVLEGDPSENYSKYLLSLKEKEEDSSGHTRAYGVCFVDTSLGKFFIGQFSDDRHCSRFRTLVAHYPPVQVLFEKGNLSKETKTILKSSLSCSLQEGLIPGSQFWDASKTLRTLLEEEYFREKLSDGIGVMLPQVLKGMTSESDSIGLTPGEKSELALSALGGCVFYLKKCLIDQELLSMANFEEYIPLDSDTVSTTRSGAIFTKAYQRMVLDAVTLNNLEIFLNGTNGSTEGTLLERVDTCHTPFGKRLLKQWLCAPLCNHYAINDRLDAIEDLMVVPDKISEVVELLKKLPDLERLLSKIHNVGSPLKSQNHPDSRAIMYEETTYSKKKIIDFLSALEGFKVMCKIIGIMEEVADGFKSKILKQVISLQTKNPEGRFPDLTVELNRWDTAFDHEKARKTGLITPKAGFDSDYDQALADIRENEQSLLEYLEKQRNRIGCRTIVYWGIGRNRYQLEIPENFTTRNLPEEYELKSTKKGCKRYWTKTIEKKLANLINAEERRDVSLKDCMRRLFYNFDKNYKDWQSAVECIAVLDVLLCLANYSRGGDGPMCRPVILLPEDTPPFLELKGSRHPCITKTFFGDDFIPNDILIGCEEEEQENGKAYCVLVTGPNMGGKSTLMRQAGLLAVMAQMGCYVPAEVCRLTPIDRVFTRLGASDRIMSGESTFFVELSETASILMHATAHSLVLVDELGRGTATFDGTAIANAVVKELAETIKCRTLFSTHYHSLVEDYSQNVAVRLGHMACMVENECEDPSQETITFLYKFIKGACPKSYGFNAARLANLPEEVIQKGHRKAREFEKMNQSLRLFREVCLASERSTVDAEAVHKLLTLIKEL

B1: hMSH5: human MutS homolog, putative 834-amino-acid protein encoded by clone b29 (SEQ ID NO: 29) (protein)
chain: MASLGANPRRTPQGPRPGAASSGFPSPAPVPGPREAEEEEVEEEEELAEIHLCVLWNSGYLGIAYYDTSDSTIHFMPDAPDHESLKLLQRVLDEINPQSVVTSAKQDENMTRFLGKLASQEHREPKRPEIIFLPSVDFGLEISKQRLLSGNYSFIPDAMTATEKILFLSSIIPFDCLLTVRALGGLLKFLGRRRIGVELEDYNVSVPILGFKKFMLTHLVNIDQDTYSVLQIFKSESHPSVYKVASGLKEGLSLFGILNRCHCKWGEKLLRLWFTRPTHDLGELSSRLDVIQFFLLPQNLDMAQMLHRLLGHIKNVPLILKRMKLSHTKVSDWQVLYKTVYSALGLRDACRSLPQSIQLFRDIAQEFSDDLHHIASLIGKVVDFEGSLAENRFTVLPNIDPEIDEKKRRLMGLPSFLTEVARKELENLDSRIPSCSVIYIPLIGFLLSIPRLPSMVEASDFEINGLDFMFLSEEKLHYRSARTKELDALLGDLHCEIRDQETLLMYQLQCQVLARAAVLTRVLDLASRLDVLLALASAARDYGYSRPRYSPQVLGVRIQNGRHPLMELCARTFVPNSTECGGDKGRVKVITGPNSSGKSIYLKQVGLITFMALVGSFVPAEEAEIGAVDAIFTRIHSCESISLGLSTFMIDLNQVAKAVNNATAQSLVLIDEFGKGTNTVDGLALLAAVLRHWLARGPTCPHIFVATNFLSLVQLQLLPQGPLVQYLTMETCEDGNDLVFFYQVCEGVAKASHASHTAAQAGLPDKLVARGKEVSDLIRSGKPIKPVKDLLKKNQMENCQTLVDKFMKLDLEDPNLDLNVFMSQEVLPAATSIL
modifications: left off: a dimerising Fc or GST; large carriers; small tags and cut ends
did not interact: interaction with GST-hMSH6 fusion protein (GST-hMSH6) | interaction with GST-hMSH2 fusion protein (GST-hMSH2) | interaction with GST-hMSH3 fusion protein (GST-hMSH3)
